The values below come from PMC3154637 (Structure (London, England : 1993), 2011).

For one experiment, the target named is MBP-AMSH(1–206) (human, UniProt O95630 1-206). Briefly: SPR. (In general: Surface plasmon resonance follows binding to a sensor surface in real time, without labels.)
In another experiment the target is His-AMSHΔC-K88A (human, UniProt O95630 1-146, K88A). Kind of experiment: pull-down.

B1: GST-CHMP1AΔN (domain or fragment, UniProt Q9HD42 123-196, looked up)
chain: DVHTSVMEDSMSSATTLTTPQEQVDSLIMQIAEENGLEVLDQLSQLPEGASAVGESSVRSQEDQLSRRLAALRN
Turning to B1, in the experiment with MBP-AMSH(1–206), the Kd came out at 1490 nM, the koff was 0.00581 s⁻¹ and the kon stood at 3890 M⁻¹ s⁻¹.

B2: GST-CHMP1BΔN (domain or fragment, UniProt Q7LBR1 126-199, looked up)
chain: DVQTQQMEDTMSSTTTLTTPQNQVDMLLQEMADEAGLDLNMELPQGQTGSVGTSVASAEQDELSQRLARLRDQV
Take B2: in the experiment with His-AMSHΔC-K88A, the binding result is on record as “binds”.

Broadly, the Kd is the free concentration of one partner at which half of the binding sites on the other are occupied at equilibrium, for simple one-to-one binding. The koff is the first-order rate constant of dissociation. High values mean a short-lived complex, low ones a long-lived complex. In general, kon refers to the second-order rate constant of association. Read a low kon as slow association.
